This test deals with mβ2m. Kind of test: SPR; pH 6.

Drawing on patent US20190201496A1, this text covers Kd for two substances.

Turning to Human AFP N-His, the Kd (usually the equilibrium constant for the complex coming apart) was found to be 280 nM.
Mouse AFP N-His: the Kd was 1030 nM.
